Results published in doi:10.1101/2025.11.12.688043 (bioRxiv, 2025).

Biological target: the molecule itself
Assay: cryo-EM structure

B1: Saccharomyces cerevisiae TOK1, wild type (natural protein, UniProt P40310 1-691, looked up)
chain: MTRFMNSFAKQTLGYGNMATVEQESSAQAVDSHSNNTPKQAKGVLAEELKDALRFRDERVSIINAEPSSTLFVFWFVVSCYFPVITACLGPVANTISIACVVEKWRSLKNNSVVTNPRSNDTDVLMNQVKTVFDPPGIFAVNIISLVLGFTSNIILMLHFSKKLTYLKSQLINITGWTIAGGMLLVDVIVCSLNDMPSIYSKTIGFWFACISSGLYLVCTIILTIHFIGYKLGKYPPTFNLLPNERSIMAYTVLLSLWLIWGAGMFSGLLHITYGNALYFCTVSLLTVGLGDILPKSVGAKIMVLIFSLSGVVLMGLIVFMTRSIIQKSSGPIFFFHRVEKGRSKSWKHYMDSSKNLSEREAFDLMKCIRQTASRKQHWFSLSVTIAIFMAFWLLGALVFKFAENWSYFNCIYFCFLCLLTIGYGDYAPRTGAGRAFFVIWALGAVPLMGAILSTVGDLLFDISTSLDIKIGESFNNKVKSIVFNGRQRALSFMVNTGEIFEESDTADGDLEENTTSSQSSQISEFNDNNSEENDSGVTSPPASLQESFSSLSKASSPEGILPLEYVSSAEYALQDSGTCNLRNLQELLKAVKKLHRICLADKDYTLSFSDWSYIHKLHLRNITDIEEYTRGPEFWISPDTPLKFPLNEPHFAFMMLFKNIEELVGNLVEDEELYKVISKRKFLGEHRKTL
- stoichiometry N: 2
